The data set concerns the molecule itself. The experiment in a line: non-reducing SDS-PAGE (intersubunit disulfide bond assay); purified StrepII-tagged protein dialysed overnight in 100 mM Tris-Cl pH 7.5, 2 M NaCl; no reducing reagent; diluted 1:1 in SDS-loading buffer, boiled 10 min, 16% SDS-PAGE, Coomassie stain; shows only covalently (disulfide) linked subunits.

B1: OxsR (HVO_2970) wild type with a C-terminal StrepII tag (natural protein, Haloferax volcanii, UniProt D4GY41 1-123, looked up)
chain: MADAPDMGELMETEDPNFGQVLACVFGIQSHESRTYLALLDNPGSTVAELAEVLDRDRSNVNRSLTTLLDKGLTERKRRLLDPGGYVYQYTATPLPEAKEMMHAALDEWAEDVHARIDAFGES
notes: 123 aa, 14 kDa; UniProtKB D4GY41; also called OxsR-StrepII; OxsR wt; source: H. volcanii SH125 (H26 ΔoxsR) carrying pJAM4019, purified (Strep-Tactin Superflow Plus resin, 2 M NaCl buffers); not shown: StrepII, C-terminal, kept
For B1, the binding result was “binds”.

The values are drawn from publication PMC9426492, “TrmB Family Transcription Factor as a Thiol-Based Regulator of Oxidative Stress Response” (mBio, 2022).
